Assays:
[1] = target: T1, VEGF-A121 (Homo sapiens, UniProt P15692 SEQ:1-121); experiment: competition; TR-FRET; stem S2 mispaired; conditions: tags: glycan-biotinylated for SPR/FRET/AlphaLISA; Acro BioSystems, Biolegend; chain copies: 2 (stated)
Protocol: (§1) Briefly, for competition TR-FRET, 2-fold dilutions of thermally equilibrated aptamers were made in TR-FRET Buffer (50 mM MOPS, pH 7.4, 125 mM NaCl, 5 mM KCl, 50 μM CHAPS, 0.1 mg/mL BSA, 1 mM CaCl₂, and 1 mM MgCl₂). 5 μL of aptamer or control solution was added to a 15 μL mix of glycan biotinylated […] (5 nM final), ALEXA FLUOR® 647-labeled Aptamer (30 nM final), and Streptavidin-Eu (Perkin Elmer; 2.5 nM final) in a black wall low volume 384 well plate (Greiner). For control, 5 μl of 1000-fold excess of unlabeled parent aptamer or 5 μl TR-FRET buffer alone was added to the mix of ALEXA FLUOR® 647-labeled aptamer, biotin-VEGF-A, and Streptavidin-Eu. The plate was covered with a plate seal and subsequently incubated in the dark for 1 hour at room temperature. The plate was read on a Biotek CYTATION™ 5 plate reader. Samples were excited at 330 nm and fluorescent values were collected at 665 nm. Data analysis was performed by subtracting the background value and plotting as percent inhibition, normalized to baseline in the absence of competitor. The values were fit by [Inhibitor] vs. response-Variable slope (four parameters) using GraphPad Prism Version 7.0 and then normalized to aptamer control to obtain an IC₅₀ relative to parent aptamer. Data is presented as log values of relative IC₅₀. […]

[2] = target: T1, VEGF-A121; experiment: competition; TR-FRET; conditions: tags: glycan-biotinylated for SPR/FRET/AlphaLISA; Acro BioSystems, Biolegend; chain copies: 2 (stated)
Protocol: Briefly, for competition TR-FRET, 2-fold dilutions of thermally equilibrated aptamers were made in TR-FRET Buffer (50 mM MOPS, pH 7.4, 125 mM NaCl, 5 mM KCl, 50 μM CHAPS, 0.1 mg/mL BSA, 1 mM CaCl₂, and 1 mM MgCl₂). 5 μL of aptamer or control solution was added to a 15 μL mix of glycan biotinylated […] (5 nM final), ALEXA FLUOR® 647-labeled Aptamer (30 nM final), and Streptavidin-Eu (Perkin Elmer; 2.5 nM final) in a black wall low volume 384 well plate (Greiner). For control, 5 μl of 1000-fold excess of unlabeled parent aptamer or 5 μl TR-FRET buffer alone was added to the mix of ALEXA FLUOR® 647-labeled aptamer, biotin-VEGF-A, and Streptavidin-Eu. The plate was covered with a plate seal and subsequently incubated in the dark for 1 hour at room temperature. The plate was read on a Biotek CYTATION™ 5 plate reader. Samples were excited at 330 nm and fluorescent values were collected at 665 nm. Data analysis was performed by subtracting the background value and plotting as percent inhibition, normalized to baseline in the absence of competitor. The values were fit by [Inhibitor] vs. response-Variable slope (four parameters) using GraphPad Prism Version 7.0 and then normalized to aptamer control to obtain an IC₅₀ relative to parent aptamer. Data is presented as log values of relative IC₅₀.
Starting at position 6, 2′F-G residues were systematically replaced, one at a time, and the activity of the resultant molecule was assessed by competition TR-FRET, as described in Example 7, against the parent molecule, Aptamer 141.

[3] = target: T1, VEGF-A121; experiment: competition; TR-FRET; stem S1 mispaired; conditions: tags: glycan-biotinylated for SPR/FRET/AlphaLISA; Acro BioSystems, Biolegend; chain copies: 2 (stated)
Protocol: as §1

[4] = target: T2, VEGF-A165 (Homo sapiens); experiment: cell_activity; KDR phosphorylation; >50% at 100 nM with VEGF-A121; conditions: tags: glycan-biotinylated for SPR/FRET/AlphaLISA; Acro BioSystems, R&D Systems; chain copies: 2 (inferred)
T2 chain: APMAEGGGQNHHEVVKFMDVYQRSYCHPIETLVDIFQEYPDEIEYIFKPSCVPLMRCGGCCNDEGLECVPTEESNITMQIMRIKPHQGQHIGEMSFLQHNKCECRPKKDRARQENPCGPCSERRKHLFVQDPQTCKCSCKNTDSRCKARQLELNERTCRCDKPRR
Protocol: (§2) Briefly, HEK293 cells engineered to stably overexpress KDR were plated overnight in collagen coated 96 well plates at 50 k cells/well. Aptamers in SB1+ (40 mM HEPES, pH 7.5, 125 mM NaCl, 5 mM KCl, 1 mM MgCl₂) were heated to 90° C. for 3 minutes and allowed to cool to room temperature for a minimum of 10 minutes. […] 15 μL of VEGF-A was added to 15 μL titrated aptamer in a polypropylene plate and diluted to 300 μL with TS buffer (10 mM Tris pH 7.5; 100 mM NaCl; 5.7 mM KCl; 1 mM MgCl₂; 1 mM CaCl₂). The aptamer/VEGF-A mixture was incubated at 37° C. for 30 minutes, after which 100 μL was added to the cells for 5 minutes at 37° C. in 5% CO₂. Treatments were aspirated from cells, and cells were lysed with 100 μL cold lysis buffer [20 mM Tris-HCl, pH 7.5, 150 mM NaCl, 1 mM EDTA, 1% Triton X-100, 0.5 mM sodium orthovanadate (freshly prepared), 1 mM PMSF (freshly prepared), lx protease inhibitor cocktail (freshly prepared)] on ice for 10 minutes. Plates were centrifuged at 4000×g for 10 minutes before transferring the cell lysis to the AlphaLISA® assay plate.
(§3) To perform the AlphaLISA® assay, 10 μL of cell lysis was transferred to a white low volume 384 well Optiplate (Perkin Elmer). […] 10 μL of this reagent mixture was added to the assay plate that contained 10 μL of cell lysate. The assay plate was sealed and incubated in the dark for approximately 2 hours, then was read on a Biotek CYTATION™ 5 plate reader using the Alpha 384 well optical cube. Percent inhibition was calculated by subtracting TS buffer background from each value and normalizing to VEGF-A only controls. The values were fit by using a four-parameter non-linear fit in GraphPad Prism Version 7.0.

[5] = target: T1, VEGF-A121; experiment: cell_activity; KDR phosphorylation in HEK293-KDR; conditions: tags: glycan biotinylated in TR-FRET; Biolegend in the cell assay; chain copies: 2
Protocol: as §2, §3

[6] = target: T1, VEGF-A121; experiment: competition; TR-FRET; also no pKDR inhibition at 100 nM; conditions: tags: glycan-biotinylated for SPR/FRET/AlphaLISA; Acro BioSystems, Biolegend; chain copies: 2 (stated)
Protocol: as §1

## AGGCCGCCUCCGCGCCCAGGGGUUUCAUUAUCCCGUUUGGCGGCUU (ssRNA, all G 2'-F; A,C,U 2'-OMe; 5' C6NH2; 3' idT) [Aptamer 183]
[1]
  binding signal: > 100 fold worse IC50 vs Aptamer 26

## GCCGACCCGCGCGGAGGGGUUUCAUUACCCCGUUUGUCGGC (ssRNA, all G 2'-F; A,C,U 2'-OMe; Sp3 joins the two parts; 5' C6NH2; 3' idT) [Aptamer 199]
[2]
  binding signal: ~2 fold better IC50 vs Aptamer 141

## AGGCCGCAUCCGCGCGGAGGGGUUUCAUUAUCCCGUUUAACCGCUU (ssRNA, all G 2'-F; A,C,U 2'-OMe; 5' C6NH2; 3' idT) [Aptamer 180]
[3]
  binding signal: > 100 fold worse IC50 vs Aptamer 26

## AGGCCGCAUCCGCGCGGAGGGGUUUCAUUAUCCCGUUUAACCGAUU (ssRNA, all G 2'-F; A,C,U 2'-OMe; 5' C6NH2; 3' idT) [Aptamer 181]
[3]
  binding signal: > 100 fold worse IC50 vs Aptamer 26

## UAGUCCGCCUCCGCGCGGAGGGGUUUCAUUAUCCCGUUUGGCGGCUUU (ssRNA, all G 2'-F; A,C,U 2'-OMe; 5' C6NH2; 3' idT)
[4]
  activity: > 50 % inhibition at 10 nM

## UAGGCCGCCUCCGCGCGGAGGGGUUUCAUUAUCCCGUUUGGCGGCCUU (ssRNA, all G 2'-F; A,C,U 2'-OMe; 5' C6NH2; 3' idT)
[4]
  activity: > 50 % inhibition at 10 nM

## UAGUCCGCCUCCGCGCGGAGGGGUUUCAUUAUCCCGUUUGGCGGCUUU (ssRNA, 2'-F G; 2'-OMe A,C,U; 5' C6NH2; 3' idT)
[5]
  activity: > 50 % inhibition at 100 nM

## UAGACCGCCUCCGCGCGGAGGGGUUUCAUUAUCCCGUUUGGCGGCUUU (ssRNA, 2'-F G; 2'-OMe A,C,U; 5' C6NH2; 3' idT)
[5]
  activity: > 50 % inhibition at 100 nM

## UAGGCCGCCUCCGCGCGGGGGGGUUUCAUUAUCCCGUUUGGCGGCUUU (ssRNA, all G 2'-F; A,C,U 2'-OMe; 5' C6NH2; 3' idT) [Aptamer 27]
[6]
  binding signal: > 100 fold worse IC50 vs Aptamer 26

## UAGGCCGCCUCCGCGCGGAGGGGUUUCAUUAUCCCGUUUGGCGGCCUU (ssRNA, 2'-F G; 2'-OMe A,C,U; 5' C6NH2; 3' idT)
[5]
  activity: > 50 % inhibition at 100 nM

## UAGACCGCCUCCGCGCGGAGGGGUUUCAUUAUCCCGUUUGGCGGCUUU (ssRNA, all G 2'-F; A,C,U 2'-OMe; 5' C6NH2; 3' idT)
[4]
  activity: > 50 % inhibition at 10 nM

B1: Aptamer 196 (ssRNA)
RNA: AGGCCGACCCGCGCGGAGGGGUUUCAUUAUCCCGUUUGUCGGCUU
modifications: G 2'-F except G22 2'-OMe; A,C,U 2'-OMe; Sp3 joins the two parts; 5' C6NH2; 3' idT
[2]
  binding signal: ~2 fold better IC50 vs Aptamer 141

B2: Aptamer 198 (ssRNA)
RNA: AGGCCGACCCGCGCGGAGGGGUUUCAUUAUCCCGUUUGUCGGCUU
modifications: G 2'-F except G39 2'-OMe; A,C,U 2'-OMe; Sp3 joins the two parts; 5' C6NH2; 3' idT
[2]
  binding signal: ~2 fold better IC50 vs Aptamer 141

From US20220098591, “STEM-LOOP COMPOSITIONS AND METHODS FOR INHIBITING VASCULAR ENDOTHELIAL GROWTN FACTOR” (DRIVE THERAPEUTICS LLC, published 2022)
